Measured values published in paper PMC3713010, “Sox2 Transcriptionally Regulates Pqbp1, an Intellectual Disability-Microcephaly Causative Gene, in Neural Stem Progenitor Cells”.

T1: Brn2 DNA-binding domain (BD-Brn2) (Mus musculus (B6), UniProt P31360 336-435)
T1 sequence: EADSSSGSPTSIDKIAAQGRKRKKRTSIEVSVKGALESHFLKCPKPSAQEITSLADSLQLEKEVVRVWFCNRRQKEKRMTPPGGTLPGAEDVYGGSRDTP

T2: Oct6 DNA-binding domain (BD-Oct6) (Mus musculus (B6), UniProt P21952 317-416)
T2 sequence: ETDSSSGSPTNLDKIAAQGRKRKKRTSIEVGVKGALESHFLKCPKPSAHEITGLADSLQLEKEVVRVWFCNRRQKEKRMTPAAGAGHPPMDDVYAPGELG

B1: 63 (dsDNA)
DNA 1: GGGGGAGAAATCCTCAATTTCCTTATCCACAAAATGGACATTTTCCTAGTACCTCCCCC
DNA 2: GGGGGAGGTACTAGGAAAATGTCCATTTTGTGGATAAGGAAATTGAGGATTTCTCCCCC
B2: 64 (dsDNA)
DNA 1: GGGGGATATATGCACAAACACTCATTTACATAAAATAACCCCC
DNA 2: GGGGGTTATTTTATGTAAATGAGTGTTTGTGCATATATCCCCC
B3: 67 (dsDNA)
DNA 1: GGGGGGCATATGCATTGTCTGTGTATTCTAAATGTATCCCCC
DNA 2: GGGGGATACATTTAGAATACACAGACAATGCATATGCCCCCC
B4: 62 (dsDNA)
DNA 1: GGGGGTTTAAACAATTGTCCCATTCATTATATTGCAACACCCCC
DNA 2: GGGGGTGTTGCAATATAATGAATGGGACAATTGTTTAAACCCCC
B5: 59 (dsDNA)
DNA 1: GGGGGAGCTTTTAACAATTTAATTTTGTCTCTACCTCCCCC
DNA 2: GGGGGAGGTAGAGACAAAATTAAATTGTTAAAAGCTCCCCC
B6: 73 (dsDNA)
DNA 1: GGGGGCTTGTCCTCAGCATCTATGGTAACACACAAATCCTGAAGCCCCC
DNA 2: GGGGGCTTCAGGATTTGTGTGTTACCATAGATGCTGAGGACAAGCCCCC
B7: 66 (dsDNA)
DNA 1: GGGGGGGAACTCCCTTAAATTTGGTTTGTTTATGTGTCCCCC
DNA 2: GGGGGACACATAAACAAACCAAATTTAAGGGAGTTCCCCCCC
B8: 68 (dsDNA)
DNA 1: GGGGGTTTGTTTGTTTGTTTAAAGGATTTATTTATTTATCCCCC
DNA 2: GGGGGATAAATAAATAAATCCTTTAAACAAACAAACAAACCCCC
B9: 72 (dsDNA)
DNA 1: GGGGGGTTTGTTTTTTAAGGAACTGTAATGAACAAATGTCAGGACCCCC
DNA 2: GGGGGTCCTGACATTTGTTCATTACAGTTCCTTAAAAAACAAACCCCCC
B10: 53 (dsDNA)
DNA 1: GGGGGTGCTTGTGACAAATCTGTCAATTTCTGGTGGGGGCCCCCC
DNA 2: GGGGGGCCCCCACCAGAAATTGACAGATTTGTCACAAGCACCCCC
B11: 61 (dsDNA)
DNA 1: GGGGGTAAATTTTTCTAATCCTGACAAATCTCTTCACCCCC
DNA 2: GGGGGTGAAGAGATTTGTCAGGATTAGAAAAATTTACCCCC
B12: 65 (dsDNA)
DNA 1: GGGGGGTACTTGGTGATAATTTCATTGTCCACATGCCCCCC
DNA 2: GGGGGGCATGTGGACAATGAAATTATCACCAAGTACCCCCC
B13: 55 (dsDNA)
DNA 1: GGGGGGTAGATTATTTGTCCACCATTCACAAGCACTGAGTTCAATAACCCCCC
DNA 2: GGGGGGTTATTGAACTCAGTGCTTGTGAATGGTGGACAAATAATCTACCCCCC
B14: 56 (dsDNA)
DNA 1: GGGGGACACTTATACAATAATAGTATTTATTAATAGTATCCCCC
DNA 2: GGGGGATACTATTAATAAATACTATTATTGTATAAGTGTCCCCC
B15: 75 (dsDNA)
DNA 1: GGGGGGCTCTGGGTATAATTAACAATAAAATGCACCCCC
DNA 2: GGGGGTGCATTTTATTGTTAATTATACCCAGAGCCCCCC
B16: 58 (dsDNA)
DNA 1: GGGGGTGAGATGGAGGAAATAAGTCTTATTGTTGTTCTCCCCCCC
DNA 2: GGGGGGGAGAACAACAATAAGACTTATTTCCTCCATCTCACCCCC
B17: 69 (dsDNA)
DNA 1: GGGGGACAAGTGATTTGTCCTTATCACATAGCTAGGAAAAGGGAATCCCCC
DNA 2: GGGGGATTCCCTTTTCCTAGCTATGTGATAAGGACAAATCACTTGTCCCCC
B18: 54 (dsDNA)
DNA 1: GGGGGAGGTGTTAAGTGTGGAGTCGTGAGAACAACAATCCAGATAGCCCCC
DNA 2: GGGGGCTATCTGGATTGTTGTTCTCACGACTCCACACTTAACACCTCCCCC
B19: 60 (dsDNA)
DNA 1: GGGGGAATTTAATTTTGTCTCTACCTTTCACGCTTCTCCTTTGCATTTTCCCCCC
DNA 2: GGGGGGAAAATGCAAAGGAGAAGCGTGAAAGGTAGAGACAAAATTAAATTCCCCC
B20: 52 (dsDNA)
DNA 1: GGGGGGGGGCAGCACAAATATTTCTGTGAATGTACCCCC
DNA 2: GGGGGTACATTCACAGAAATATTTGTGCTGCCCCCCCCC
B21: 57 (dsDNA)
DNA 1: GGGGGCCTAAGATTCTTAATCTGACATTGTAGTCCCTACCCCC
DNA 2: GGGGGTAGGGACTACAATGTCAGATTAAGAATCTTAGGCCCCC
B22: 74 (dsDNA)
DNA 1: GGGGGGACTTTCTTGGCGGATTTGGTAACGACAAAGTTAGGATCCCCC
DNA 2: GGGGGATCCTAACTTTGTCGTTACCAAATCCGCCAAGAAAGTCCCCCC

Experiments:
Assay in all cases: EMSA; 10% glycerol, 20 mM HEPES pH 7.8, 45 mM KCl, 10 mM NaCl, 1 mM EDTA, 1 mM DTT, 0.2 ug/uL BSA, 0.1% NP-40, 50 ng poly-dIdC; 20 ng each GST protein; room temperature 30 min (heterodimers 4 C); 6% PAGE 0.25x TBE
Settings in all cases: protein: recombinant; tags: GST (N-terminal, pGEX-6P-1); label: 32P-dCTP fill-in of the 5' (dG)5 overhangs of both strands (Methods; control probes are given with GGG)
[1] = molecular target: T1, Brn2 DNA-binding domain (BD-Brn2)
Summary of the method: (§1)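 Candidate cis-element oligonucleotides were annealed, labelled with 32P-dCTP and tested against GST-tagged transcription factor DNA-binding domains made in E. coli BL21 and purified on glutathione-sepharose. For each binding reaction, 20 ng protein was combined with 40,000–50,000 cpm probe and 50 ng poly-dIdC in HEPES/KCl glycerol buffer containing BSA and detergent for 30 min at room temperature. Gels of 6% polyacrylamide in 0.25×TBE were run at 4°C, and band radioactivity was measured on a BAS4000 imager. The readout for DNA binding was the band signal in the expected shift region.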

[2] = molecular target: T2, Oct6 DNA-binding domain (BD-Oct6)
Summary of the method: as §1

[3] = molecular target: Pax6 DNA-binding domain (BD-Pax6) (Mus musculus (B6), UniProt P63015 190-289)
Summary of the method: as §1

Sequence of Pax6 DNA-binding domain (BD-Pax6) (P63015 190-289): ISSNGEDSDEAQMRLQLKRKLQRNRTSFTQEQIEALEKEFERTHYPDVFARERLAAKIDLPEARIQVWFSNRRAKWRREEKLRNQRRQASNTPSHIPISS

Row | Binder | binding result [1] | binding result [2] | binding result [3]
1 | B1 | no binding | binds | binds
2 | B2 | binds | binds | binds
3 | B3 | no binding | no binding | no binding
4 | B4 | binds | binds | binds
5 | B5 | binds | binds | binds
6 | B6 | no binding | no binding | no binding
7 | B7 | no binding | binds | binds
8 | B8 | binds | binds | binds
9 | B9 | binds | binds | binds
10 | B10 | no binding | no binding | no binding
11 | B11 | no binding | binds | binds
12 | B12 | binds | binds | binds
13 | B13 | no binding | binds | no binding
14 | B14 | binds | binds | binds
15 | B15 | binds | binds | binds
16 | B16 | no binding | binds | no binding
17 | B17 | no binding | binds | no binding
18 | B18 | no binding | binds | no binding
19 | B19 | binds | binds | binds
20 | B20 | no binding | no binding | no binding
21 | B21 | no binding | binds | binds
22 | B22 | no binding | no binding | no binding
